# Data from the DeepSol protein solubility set.
# Test: soluble on expression in E. coli; label from the status in PepcDB or PDB records
row,Sequence,soluble on expression in E. coli
1,MGSDKIHHHHHHMSDDTIDRFFGYLNWLFNPFHGLKTTEVYDLIGTSSLTENALYLNLGYWRKADTIDEASEALALLVAKRGGMGPGDIVLDCGYGFGDQDILWARQLKPEKIIGLNITSSQVERARKRVADAGLEQSIDLREGSATAMPIENESIDLVVSVESAFHYRTREAFFREAFRVLRPGGRLVTADIVPTENSGNPFRRMEQWFSWNLVAGKFNIPQENYYLIPSYQNKLTKAGFVQIDIKSIRDDVYEPLHAYLAKNRTFFAKMHPLARIMAQLTLNRSAESVYAGLDYILSYAEKP,not soluble
2,MMKTLSSGNCTLSVPAKNSYRMVVLGASRVGKSSIVSRFLNGRFEDQYTPTIEDFHRKVYNIRGDMYQLDILDTSGNHPFPAMRRLSILTGDVFILVFSLDNRESFDEVKRLQKQILEVKSCLKNKTKEAAELPMVICGNKNDHGELCRQVPTTEAELLVSGDENCAYFEVSAKKNTNVDEMFYVLFSMAKLPHEMSPALHRKISVQYGDAFHPRPFCMRRVKEMDAYGMVSPFARRPSVNSDLKYIKAKVLREGQARERDKCTIQLEHHHHHH,soluble
3,MSLAANMYRVGDYVYFENSSSNPYLIRRIEELNKTANGNVEAKVVCFYRRRDISSTLIALADKHATLSVCYKAGPGADNGEEGEIEEEMENPEMVDLPEKLKHQLRHRELFLSRQLESLPATHIRGKCSVTLLNETESLKSYLEREDFFFYSLVYDPQQKTLLADKGEIRVGNRYQADITDLLKEGEEDGRDQSRLETQVWEAHNPLTDKQIDQFLVVARSVGTFARALDCSSSVRQPSLHMSAAAASRDITLFHAMDTLHKNIYDEGHHHHHH,not soluble
4,MNAIADVQSSRDLRNLPINQVGIKDLRFPITLKTAEGTQSTVARLTMTVYLPAEQKGTHMSRFVALMEQHTEVLDFAQLHRLTAEMVALLDSRAGKISVSFPFFRKKTAPVSGIRSLLDYDVSLTGEMKDGAYGHSMKVMIPVTSLCPCSKEISQYGAHNQRSHVTVSLTSDAEVGIEEVIDYVETQASCQLYGLLKRPDEKYVTEKAYENPKFVEDMVRDVATSLIADKRIKSFVVESENFESIHNHSAYAYIAYP,soluble
5,MGSDKIHHHHHHMKQLILFLLCLSTWTAQAKIYNVKDYGAKADGTTIDSPAINRAIEEAASQGGGTVYFPAGEYACYSIRLASHIHLYIEQGARIVGAFPSATEGYDPAEPNEHTQFQDFGHSHWKNSLIWGIGLEDITISGPGLIYGKGLTREESRLPGVGNKAISLKLCKNVTLKDFSLLHCGHFGLLATGVDNLSILNVKVDTNRDGFDIDCCKNVRISHCTVNAPWDDAIVLKASYGLGYFKDTENVTISDCFVSGYDRGSVLDCTWQRDEPQAPDHGFVTGRIKLGTESSGGFKNIAITNCIFERCRGLALETVDGGKLEDIVISNITMRDIVNAPIFLRLGARMRSPQGTPVGTMKRILISHVNVFNADSRYSSIISGIPGALIEDVTLSDIHIYHQGGYTEADGLLTPPEQEKVYPEPWMFGTIPAKGFYIRHARNITLDNVNFHYEKADGRPLFVTDDASDIRYRNITVDGKEFNTAN,not soluble
6,MGSDKIHHHHHHAATRLKRRKFPTINEEFYYNQLENGMTVFLIPKESFKETLAVMSSRFGSIDTNFTVNGKKKSYLAGIAHLLEHQLFEMNKQKDAAYEFTKLGAESNAYTTFDKTIYYFSTADNIKKNLDLLQEFTSQINFTDMSIEKEKKIITQEFNMYQDDSDDYLYQVILSKLYPQTSLAEDITGNRDSIDKLTKNNLEENFHYFYQPENLTLLVAGDFDVKRVYKDIVTTQRQLPDRPKFEIKRSPLKLLPITPTSSMQMDISISKLAVGFRFNFIKKKRKSLIKERLLLKLFFLLLFGWTSEHYQQWYEDRKIDDSFELKIEVSTSYQFVVILLDTKEPIAMSNKIGQTIKKFKTDTNLSASHLQTVKKELYGDFIRSLDSLEALSSQFIDNLWGEETYFDFPTVLQNIEIKDVLEFGEKITKEMQLTDFTLFPK,not soluble
7,AVKGLGKPDQVYDGSKIRVGIIHARWNRVIIDALVKGAIERMASLGVEENNIIIETVPGSYELPWGTKRFVDRQAKLGKPLDVVIPIGVLIKGSTMHFEYISDSTTHALMNLQEKVDMPVIFGLLTCMTEEQALARAGIDEAHSMHNHGEDWGAAAVEMAVKFGKNAF,soluble
8,MSLTERPRDCRPVVRRARTSDVPAIKQLVDTYAGKILLEKNLVTLYEAVQEFWVAEHPDLYGKVVGCGALHVLWSDLGEIRTVAVDPAMTGHGIGHAIVDRLLQVARDLQLQRVFVLTFETEFFARHGFTEIEGTPVTAEVFDEMCRSYDIGVAEFLDLSYVKPNILGNSRMLLVLEGHHHHHH,soluble
9,MGSDKIHHHHHHMTDERIHILRDILLELHNGASPESVQDRFDATFTGVSAIEISLMEHELMNSDSGVTFEDVMELCDVHANLFKNAIKGVEVSDTEHPGHPVRVFKEENLALRAALIRIRRLLDTYESMEDEEMLAEMRKGLVRQMGLVGQFDIHYQRKEELFFPIMERYGHDSPPKVMWGVDDQIRELFQTALTTAKSLPEVSISSVKEAFEAFATEFESMIFKEESILLMILLESFTQDDWLQIAEESDAYGYAIIRPSEKWVPERQSFIEEKIAEEPVQLDTAEGQVQQVIDTPEGHFTITFTPKEKEAVLDRHSQQAFGNGYLSVEQANLILNHLPMEITFVNKEDIFQYYNDNTPADEMIFKRTPSQVGRNVELCHPPKYLDKVKTIMKGLREGSKDKYEMWFKSESRGKFVHITYAAVHDEDGEFQGVLEYVQDIQPYREIDTDYFRGLE,not soluble
10,MNERERVLAIKGGDHQAFIDLYNEYWSQVYDFSRLYIATIADAEEIVQDVFVKLWESRHLLKEDENIKGFLFIVTRNIVFNKNKKRVNENLFKTSVLVAYGNEGYYNSTTVEEDYCASQLKIFIDRLINSLPEQQRKCFLLSREESLSYKEIAERLGISQKTVEIHMGKALKFLKDKVKRGWEILLSLLSF,not soluble
11,SSWIPFKIGQPKKQIVSKTVERDFEREYGKLQQLEEQTKRLQKDMKKSTDADLAMSKSAVKISLDLLSNPLCEQDQDFLRMVTALDTAMKRMDAFNQEKVNQIQKTVIEPLKKFGSIFPSLNMAVKRREQALQDYGRLQAKVEKYEEKEKTGPVLAKLHQAREELRPVREDFEAKNKQLLDEMPRFYNSRLDYFQPSFESLIRAQVIYYSEMHKIFGDLTQQLDQPGHSDEHRERENETKLSELRALSIVADD,soluble
12,MKAYLGLYTARLETPARSLKEKRALIKPALERLKARFPVSAARLYGLDAWGYEVVGFTLLGNDPAWVEETMRAAARFLAEAGGFQVALEEFRLEAFELDGLL,soluble
13,MSAGKTGNHLMISDSKLLASAAWDAQSLNELKAKAGEDPAANIRPVARQVEGMFVQMMLKSMRDALPKDGLFSSEHTRLYTSMYDQQIAQQMTAGKGLGLAEMMVKQMTPEQPLPEEPTPAAPMKFPLETVVRYQNQALSQLVQKAVPRNYDDSLPGNSKAFLAQLSLPAQLASQQSGVPHHLILAQAALESGWGQRQIRRENGEPSYNLFGVKASGNWKGPVTEITTTEYENGEAKKVKAKFRVYSSYLEALSDYVGLLTRNPRYAAVTTAASAEQGAQALQDAGYATDPHYARKLTNMIQQMKSISDKVSKTYSMNIDNLF,soluble
14,MGSDKIHHHHHHMGGNRFGQSPVTGGAGVNAVAKRACLDDVQIAFGQGHRVHVARADTAPDLTRAFAQPIHLCTPICPPRTLTTTRHMDNPHGRAIVHAMEQLDADILIVGGGLNGPCLALACAQAGLSSVVLDALPAQTREETGFDGRAYALALASVRMLDALGIWNQVEDHAQPMLEIKASDGRAGEGAAPFFLHFDHAEIEEGPMGHMLEDRYLRRALMAAMEASSLVAHRAASRVLSQDTNGMASVTLDGGEVLRGRLLIGADGKRSGVAERAGIRRMGWDYNQTALVCAVDHDRPHNGIAHQFFMPGGPLAILPLPGNRSSIVWSESEPRASELAAADDDTFMDALRPAFGDFLGNISLTGQRHSYPLSLSLAQAFVAEKLALVGDAAHGVHPIAGQGLNLGLRDVSALAETLADAKRRGEDFARRDVLDRYQQWRRFDTAGLAVATDSVNRLFSNDNPAVRAIRDIGMGAIGALPTLRRRFIREAAGLTGDLPRLMQGRTL,not soluble
15,MDGQTLHAWAKRFALELPFTEHCWPFGPQYDVFKVGGKIFMLFTEHHCRPVVNLKSDPQKSLVNQQIYPSIAPGYHMNKKHWISVYAGEDITVSLLNDLINDSWNLVVDGLPKREQLRLRPR,not soluble
